Earlier results as cited in publication PMC5760685.

Target: CRHR1 (UniProt P34998)
Chain of UniProt P34998 (P34998 24-415): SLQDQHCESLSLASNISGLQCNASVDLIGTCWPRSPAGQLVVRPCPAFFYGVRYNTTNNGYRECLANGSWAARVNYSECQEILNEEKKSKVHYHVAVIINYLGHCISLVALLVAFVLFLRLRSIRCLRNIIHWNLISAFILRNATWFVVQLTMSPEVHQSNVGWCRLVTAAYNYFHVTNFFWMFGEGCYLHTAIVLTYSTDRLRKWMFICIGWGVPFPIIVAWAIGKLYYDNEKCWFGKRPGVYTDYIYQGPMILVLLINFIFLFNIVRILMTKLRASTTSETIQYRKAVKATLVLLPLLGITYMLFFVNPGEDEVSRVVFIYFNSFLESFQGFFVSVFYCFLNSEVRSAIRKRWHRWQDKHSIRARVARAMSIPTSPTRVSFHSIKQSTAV

Substance: CRH (from UniProt P06850)
- Kd: 3 nM
